Experimental data: patent publication US20160257763A1 (Zymeworks, published 2016)

Tests used:
[1] = biological target: T1, Recombinant human EGFR-ED (human, UniProt P00533 25-645); assay: SPR (ProteOn XPR36); v1323 captured on immobilized anti-human IgG, recombinant human EGFR-ED injected as analyte; global 1:1 Langmuir fit
T1 construct: extracellular domain; also called extracellular domain (ED) of EGFR
Protocol: (§1) The ability of v1323 comprising an EGFR binding domain to bind to the extracellular domain (ED) of EGFR was tested by Surface Plasmon Resonance (SPR) using a ProteOn XPR36 system from BIO-RAD.
(§2) Approximately 3000 RU of anti-human IgG 25 ug/ml was immobilized on a GLC chip using standard amine coupling. Exemplary SDACs were captured on the anti-human IgG immobilized chip to capture level of approximately 700 RU. Recombinant human EGFR-ED was diluted in running buffer and injected at a flow rate of 50 μl/min for 2 minutes, followed by dissociation for another 4 minutes. Sensograms were fit globally to a 1:1 Langmuir binding model. All experiments were conducted at room temperature.

[2] = biological target: T1, Recombinant human EGFR-ED; assay: SPR, v1323 captured by anti-human IgG, EGFR-ED injected, 1:1 Langmuir fit
Protocol: as §1, §2

- Kd [1]: 4.05 nM
- koff [1]: 0.004 s⁻¹
- kon [1]: 989000 M⁻¹ s⁻¹
- Kd [2]: 3 to 4.5 nM
B1: v1323, monovalent anti-EGFR antibody (EG2) (Fc fusion)
VHH: QVKLEESGGGLVQAGDSLRVSCAASGRDFSDYVMGWFRQAPGKEREFVAAISRNGLTTRYADSVKGRFTISRDNDKNMVYLQMNSLKPEDTAVYYCAVNSAGTYVSPRSREYDYWGQGTQVTVSS
notes: EU numbering; no light chain, no CH1; also called exemplary heteromultimer; not shown: hinge/linker between the VhH and the Fc (not described), and with it the heterodimer Fc carrier, left out of the chains
